Data from patent publication US20160289684.

What was measured:
[1] = tested on: T1, GST fusion protein carrying the SP2 motif of NFAT
T1 sequence: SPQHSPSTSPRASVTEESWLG

[2] = tested on: T2, GST fusion protein carrying the SP3 motif of NFAT
T2 sequence: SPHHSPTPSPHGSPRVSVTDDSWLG

[3] = target: T3, GST fusion protein containing the N-terminal regulatory domain (amino acids 1-319) of NFAT2 (UniProt O95644)
T3 sequence: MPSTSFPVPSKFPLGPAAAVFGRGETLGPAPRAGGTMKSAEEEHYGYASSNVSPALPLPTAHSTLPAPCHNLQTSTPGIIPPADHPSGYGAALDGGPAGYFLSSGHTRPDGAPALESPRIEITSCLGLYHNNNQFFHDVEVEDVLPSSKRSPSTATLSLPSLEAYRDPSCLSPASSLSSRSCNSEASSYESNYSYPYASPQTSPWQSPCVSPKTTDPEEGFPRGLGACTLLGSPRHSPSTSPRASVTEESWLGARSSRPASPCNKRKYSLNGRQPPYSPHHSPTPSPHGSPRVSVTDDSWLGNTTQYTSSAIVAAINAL

[4] = target: T4, GST fusion protein containing the NFAT2 phosphorylation site S151 flanked with 9-11 amino acids (UniProt O95644)
T4 sequence: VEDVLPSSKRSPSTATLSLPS

[5] = target: T5, GST fusion protein containing the NFAT2 phosphorylation site S161 flanked with 9-11 amino acids (UniProt O95644)
T5 sequence: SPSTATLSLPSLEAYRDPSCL

[6] = target: T6, GST fusion protein containing the NFAT2 phosphorylation site S324 flanked with 9-11 amino acids (UniProt O95644)
T6 sequence: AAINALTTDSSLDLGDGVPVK

## IKKε purified from 293T cells
[1]
  in vitro kinase assay: weakly the SP2 site
[2]
  in vitro kinase assay: IKKε efficiently phosphorylated the SP3 motif
[3]
  in vitro kinase assay: purified IKKε was sufficient to phosphorylate the N-terminal regulatory domain (amino acids 1-319) of NFAT2 by an in vitro kinase assay
[4]
  in vitro kinase assay: peptides containing three serines, except the peptides containing S^117, were phosphorylated by IKKε in vitro
[5]
  in vitro kinase assay: peptides containing three serines, except the peptides containing S^117, were phosphorylated by IKKε in vitro
[6]
  in vitro kinase assay: peptides containing three serines, except the peptides containing S^117, were phosphorylated by IKKε in vitro
